Where “and” joins values, the source holds several entries; their conditions need not be identical. Equal values may be shown once.
Test system: Bacillus subtilis DB104 (SP-AmyQ fusion secretion)
Test: AmyQ secretion efficiency, weighted average sort bin (1 = best secretion, 10 = worst) (bin number (weighted average, 1-10)); higher = lower secretion efficiency
Outline: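 The secretion score was taken as the read-frequency-weighted mean bin number, normalised to beads per bin, with low-abundance sequences excluded. Bins came from large-particle flow cytometry sorting of occupied alginate beads (~65 nL, about 0.3 cells each, with fluorescein-starch) into 10 equally populated groups by green/red fluorescence ratio after about 13 h at room temperature and nile red staining. The cells were a B. subtilis DB104 library with mature AmyQ fused to designed signal peptides, integrated at amyE, and each bin's amplicons were Illumina-sequenced.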

Sequence | AmyQ secretion efficiency
MKLWMRKTQKGLFTIVTFGLVSPPAALMADKP | 5.07
MKMKSGMEQAVSVLLLLSRLPASLTSE | 3.77
MKMKSGMEQAVSVLLLLSRLPVQASFTSE | 7.78
MKMKSGMEQAVSVLLLLSRLPVQASITSE | 7.01
MKMKSGMEQAVSVLLLLSRLPVQASLRRK | 7.08
MKMKSGMEQAVSVLLLLSRLPVQASLTRK | 7.01
MKMKSGMEQAVSVLLLLSRLPVQASLTSD | 6.62
MKMKSGMEQAVSVLLLLSRLPVQASLTSE | 7.57 and 7.03
MKMKSGMEQAVSVLLLLSRLPVQASLTSH | 7.82
MKMKSGMEQAVSVLLLLSRLPVQASLTSR | 6.52
MKMKSGMEQAVSVLLLLSRLPVQASNTSE | 5.73
MKMKSGMEQAVSVLLLLSRLPVQYSLTSE | 5.01
MKNGGCKLVVSVTLFFSFLTIGPLAHAQNS | 3.26
MKNLTKTSLLLAGLCTAAQMVFVTHASAEES | 3.46
MKNMSCKGVVSVTLFFSFLTIGPLAHAQNS | 1.49
MKNMSCKLKKSVTLFFSFLTIGPLAHAQNS | 3.34
MKNMSCKLRKKKTLFFSFLTIGPLAHAQNS | 6.98
MKNMSCKLRRRRKRFFSFLTIGPLAHAQNS | 7.37
MKNMSCKLVVSVTLFFSFLDEDPLAHAQNS | 2.75
MKNMSCKLVVSVTLFFSFLDSTPGAHAQNS | 1.96
MKNMSCKLVVSVTLFFSFLFTIGPLAHAQNS | 1.19
MKNMSCKLVVSVTLFFSFLGGGPLAHAQNS | 1.53
MKNMSCKLVVSVTLFFSFLGIFVLAHAQNS | 4.32
MKNMSCKLVVSVTLFFSFLKRRPLAHAQNS | 8.2
MKNMSCKLVVSVTLFFSFLRKKKKKAHAQNS | 6.96
MKNMSCKLVVSVTLFFSFLTAHAQNS | 6.96

Sequence | AmyQ secretion efficiency
MKNMSCKLVVSVTLFFSFLTIGPLAHADDE | 3.5
MKNMSCKLVVSVTLFFSFLTIGPLAHAKRK | 2.49
MKNMSCKLVVSVTLFFSFLTIGPLAHAQED | 2.36
MKNMSCKLVVSVTLFFSFLTIGPLAHAQKR | 1.94
MKNMSCKLVVSVTLFFSFLTIGPLAHAQND | 1.22
MKNMSCKLVVSVTLFFSFLTIGPLAHAQNR | 1.47
MKNMSCKLVVSVTLFFSFLTIGPLAHCQNS | 1.91
MKNMSCKLVVSVTLFFSFLTIGPLAHDQNS | 6.5
MKNMSCKLVVSVTLFFSFLTIGPLAHEQNS | 5.71
MKNMSCKLVVSVTLFFSFLTIGPLAHFQNS | 5.82
MKNMSCKLVVSVTLFFSFLTIGPLAHGQNS | 2
MKNMSCKLVVSVTLFFSFLTIGPLAHLQNS | 6
MKNMSCKLVVSVTLFFSFLTIGPLAHNQNS | 5.52
MKNMSCKLVVSVTLFFSFLTIGPLAHPQNS | 5.55
MKNMSCKLVVSVTLFFSFLTIGPLAHQQNS | 5.78
MKNMSCKLVVSVTLFFSFLTIGPLAHRQNS | 6.88
MKNMSCKLVVSVTLFFSFLTIGPLAHSQNS | 2.01
MKNMSCKLVVSVTLFFSFLTIGPLAHTQNS | 4.17
MKNMSCKLVVSVTLFFSFLTIGPLAHVQNS | 4.29
MKNMSCKLVVSVTLFFSFLTIGPLAHWQNS | 5.85
MKNMSCKLVVSVTLFFSFLTIGPLAHYQNS | 6.66
MKNMSCKLVVSVTLFFSFLTIGPLAPVGVSPVAHAQNS | 1.75
MKNMSCKLVVSVTLFFSFLTIGPLCHAQNS | 1.32
MKNMSCKLVVSVTLFFSFLTIGPLFHAQNS | 5.19
MKNMSCKLVVSVTLFFSFLTIGPLGHAQNS | 2.46
MKNMSCKLVVSVTLFFSFLTIGPLHHAQNS | 5.75

Sequence | AmyQ secretion efficiency
MKNMSCKLVVSVTLFFSFLTIGPLIHAQNS | 1.06
MKNMSCKLVVSVTLFFSFLTIGPLLHAQNS | 1.77
MKNMSCKLVVSVTLFFSFLTIGPLMHAQNS | 1.39
MKNMSCKLVVSVTLFFSFLTIGPLNHAQNS | 5.54
MKNMSCKLVVSVTLFFSFLTIGPLQHAQNS | 5.15
MKNMSCKLVVSVTLFFSFLTIGPLSHAQNS | 2.11
MKNMSCKLVVSVTLFFSFLTIGPLTHAQNS | 1.52
MKNMSCKLVVSVTLFFSFLTIGPLVFPFAHAQNS | 4.97
MKNMSCKLVVSVTLFFSFLTIGPLVHAQNS | 1.05
MKNMSCKLVVSVTLFFSFLTIGPLYHAQNS | 5.32
MKNMSCKLVVSVTLFFTIGPLAHAQNS | 2.62
MKNMSCKTNLVVSVTLFFSFLTIGPLAHAQNS | 1.06
MKNMSCKTSGSTTGGTSFLTIGPLAHAQNS | 6.59
MKNMSCKYQQGVTLFFSFLTIGPLAHAQNS | 6.89
MKNMSKLVVSVTLFFSFLTIGPLAHAQNS | 1.41
MKNRKRKLVVSVTLFFSFLTIGPLAHAQNS | 1.21
MKQCQKSRKRRRQFLVSLIIGTFVISVPFMANAQSD | 1.71
MKQFAITLSVLCALILLVPTLLVIPFFHNKEAGASV | 6.58
MKQFAITLSVLCALILLVPTLLVIPFQHNKAAGASV | 4.37
MKQFAITLSVLCALILLVPTLLVIPFQHNKEAKASV | 5.85
MKQFAITLSVLCALILLVPTLLVIPFQHNKEAMASV | 6.87
MKQFAITLSVLCALILLVPTLLVIPFQHNKEAPASV | 8.36
MKQFAITLSVLCALILLVPTLLVIPFQHNKMAGASV | 5.07
MKQFAITLSVLCALILLVPTLLVIPFVSAAEAGASV | 3.34
MKQFAITLSVLCALILLVPTLLVIPRRKKRHKKEAGASV | 5.51
MKQGKFSKRLILLLMLTLVVAPKEKAEAASS | 1.59

Sequence | AmyQ secretion efficiency
MKQGKFSRYYKSLLMLTLVVAPKEKAEAASS | 6.74
MKQGKFSSFLILLLMLTLVVAPKEKAEAASS | 2.33
MKQGKFSVFLILLLMLAPKEKAEAASS | 2.23
MKQGKFSVFLILLLMLTLVVAPKEKAEAAEE | 2.62
MKQGKFSVFLILLLMLTLVVAPKEKAEAASD | 1.02
MKQGKFSVFLILLLMLTLVVAPKEKAEHASS | 4.93
MKQGKFSVFLILLLMLTLVVAPKEKCEAASS | 1.62
MKQGKFSVFLILLLMLTLVVAPKEKEEAASS | 7.98
MKQGKFSVFLILLLMLTLVVRRRKKRKAEAASS | 7.96
MKQGKFSVFLILLLMLTLVVTIFAALVIAPKEKAEAASS | 3.57
MKQGKFSVKKKRKRMLTLVVAPKEKAEAASS | 5.83
MKQGKFSVKKRKLLMLTLVVAPKEKAEAASS | 8.14
MKQGKFVFLILLLMLTLVVAPKEKAEAASS | 1.74
MKQGRTFLTSFMLLAMTGQTALAKDV | 4.71
MKQIKKKRTSFMLLAMTGQTALAKDV | 6.55
MKQIMIFLMIFMLLAMTGQTALAKDV | 4.05
MKQIMIFLTSFMLLAMTGQTALAADE | 3.7
MKQIMIFLTSFMLLAMTGQTCLAKDV | 3.75
MKQIMIFLTSFMLLAMTGQTTLAKDV | 3.1
MKQIMIFLTSFMLLAMTGTTALAKDV | 3.67
MKQIMIFLTSFMLLARRRRKKALAKDV | 7.64
MKQIMIFLTSFMMTGQTALAKDV | 3.81
MKQIRKKRKKFMLLAMTGQTALAKDV | 7.04
MKQKRGRKACLILFSFTITTFINTETISAFSN | 3.84
MKQKRKIIGWILLLCIIPLFAFTVIASGKEV | 6.81
MKQRKRVSALTPSTTLAITAKAKEL | 7.26

Sequence | AmyQ secretion efficiency
MKQRRIMIFLTSFMLLAMTGQTALAKDV | 3.05
MKQTMIFLTSFMLLAMTGQTALAKDV | 3.23
MKQTRSKQSSFMLLAMTGQTALAKDV | 7.56
MKRCKRLIVCSLAAILLLIPSVSFAADS | 3.14
MKRCKRRRLIVCSLAAILLLIPSVSFAADS | 3.97
MKRFILVLSFLSIIVAYPIQINASPM | 2.47
MKRFILVLSFLSIIVAYPIQSNASPM | 5.96
MKRFILVLSFLSIIVAYPIQTNASPE | 2.06
MKRFILVLSFLSIIVAYPIQVNASPM | 3.06
MKRFILVLSFLSIIVKKRIQTNASPM | 7.76
MKRFILVLSFLSIIVKRRRRRTNASPM | 7.31
MKRFILVLSFLSIIVLVTSASSFLAYPIQTNASPM | 5.04
MKRFKKKKSFLSIIVAYPIQTNASPM | 5.88
MKRFLIGAGVAASGWFIADHQTHSQEM | 6.73
MKRFLIGAGVAAVILDDEEEADHQTHSQEM | 7.2
MKRFLIGAGVAAVILFSITFSGWFIADHQTHSQEM | 5.28
MKRFLIGAGVAAVILKRWFIARHQTHSQEM | 7.28
MKRFLIGAGVAAVILRKKKKAKHQTHSQEM | 6.98
MKRFLIGAGVAAVILSGWFIADHQFHSQEM | 5.93
MKRFLIGAGVAAVILSGWFIADHQKHSQEM | 5.36
MKRFLIGAGVAAVILSGWFIADHQTHGQEM | 5.37
MKRFLIGAGVAAVILSGWFIADHQTHKQEM | 4.69
